In article PMC2425489:

Columns and labels:
Hoxa2;Pbx1a [1] = biological target: T1, Hoxa2;Pbx1a (mouse?;, UniProt P31245;P41778 1-372;1-430, |); experiment: competition
Pbx1a;Prep1 [2] = biological target: T2, Pbx1a;Prep1 (;, UniProt P41778;P55347 1-430;1-436, |); experiment: competition
T2 sequence 1: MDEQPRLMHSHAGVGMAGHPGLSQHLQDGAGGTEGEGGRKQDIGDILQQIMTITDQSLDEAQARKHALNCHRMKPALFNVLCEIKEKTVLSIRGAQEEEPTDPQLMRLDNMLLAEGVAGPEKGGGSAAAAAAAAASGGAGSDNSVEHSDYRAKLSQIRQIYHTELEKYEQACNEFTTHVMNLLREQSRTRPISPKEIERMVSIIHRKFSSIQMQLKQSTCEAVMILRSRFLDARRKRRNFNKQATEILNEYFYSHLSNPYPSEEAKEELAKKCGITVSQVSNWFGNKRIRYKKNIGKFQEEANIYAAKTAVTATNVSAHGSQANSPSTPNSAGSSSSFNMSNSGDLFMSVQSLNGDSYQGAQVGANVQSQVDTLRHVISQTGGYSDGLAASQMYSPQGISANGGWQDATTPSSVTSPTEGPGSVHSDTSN
T2 sequence 2: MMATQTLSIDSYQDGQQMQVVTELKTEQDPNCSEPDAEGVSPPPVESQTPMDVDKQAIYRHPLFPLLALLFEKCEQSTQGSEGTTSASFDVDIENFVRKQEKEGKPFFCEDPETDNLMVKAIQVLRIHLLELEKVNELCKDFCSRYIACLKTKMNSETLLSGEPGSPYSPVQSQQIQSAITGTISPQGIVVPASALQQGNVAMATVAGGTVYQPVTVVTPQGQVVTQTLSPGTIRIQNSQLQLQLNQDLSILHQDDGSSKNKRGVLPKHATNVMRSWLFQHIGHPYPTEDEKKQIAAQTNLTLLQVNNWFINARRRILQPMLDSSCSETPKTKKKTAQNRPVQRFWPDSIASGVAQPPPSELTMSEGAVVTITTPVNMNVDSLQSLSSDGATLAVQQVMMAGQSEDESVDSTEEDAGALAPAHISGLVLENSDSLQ

[3] = biological target: Hoxa2(QN-AA) (Hoxa2*);Pbx1a (mouse?;, UniProt P31245;P41778 1-372;1-430, Q188A;N189A|); experiment: EMSA
Hoxa2(QN-AA) (Hoxa2*) = Hoxa2(QN-AA) (Hoxa2*) (UniProt P31245 1-372, Q188A;N189A); experiment: EMSA
Hoxa1(WM-AA);Pbx1a = Hoxa1(WM-AA);Pbx1a (mouse?;, UniProt P09022;P41778 1-331;1-430, W203A;M204A|); experiment: EMSA
Hoxa1 = Hoxa1 (UniProt P09022 1-331); experiment: EMSA
Hoxa1(WM-AA) = Hoxa1(WM-AA) (UniProt P09022 1-331, W203A;M204A); experiment: EMSA
Hoxa2;Pbx1a [4] = biological target: T1, Hoxa2;Pbx1a; experiment: EMSA
Pbx1a;Prep1 [5] = biological target: T2, Pbx1a;Prep1; experiment: EMSA
Hoxa2 = Hoxa2 (UniProt P31245 1-372); experiment: EMSA

Measured: binding result

T1 sequence (P31245 whole entry, one chain of several): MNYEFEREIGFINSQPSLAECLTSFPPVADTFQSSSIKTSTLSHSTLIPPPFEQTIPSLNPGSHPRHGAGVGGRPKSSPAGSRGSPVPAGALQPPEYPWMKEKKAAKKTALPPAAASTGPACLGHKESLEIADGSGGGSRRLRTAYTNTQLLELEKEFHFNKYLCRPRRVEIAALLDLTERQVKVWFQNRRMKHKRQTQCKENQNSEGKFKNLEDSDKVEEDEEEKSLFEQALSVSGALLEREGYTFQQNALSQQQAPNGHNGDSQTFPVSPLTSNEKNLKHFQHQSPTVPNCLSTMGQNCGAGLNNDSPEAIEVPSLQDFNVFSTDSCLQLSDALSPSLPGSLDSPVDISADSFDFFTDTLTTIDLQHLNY
Sequence of Hoxa1(WM-AA);Pbx1a (P09022 whole entry W203A/M204A, one chain of several): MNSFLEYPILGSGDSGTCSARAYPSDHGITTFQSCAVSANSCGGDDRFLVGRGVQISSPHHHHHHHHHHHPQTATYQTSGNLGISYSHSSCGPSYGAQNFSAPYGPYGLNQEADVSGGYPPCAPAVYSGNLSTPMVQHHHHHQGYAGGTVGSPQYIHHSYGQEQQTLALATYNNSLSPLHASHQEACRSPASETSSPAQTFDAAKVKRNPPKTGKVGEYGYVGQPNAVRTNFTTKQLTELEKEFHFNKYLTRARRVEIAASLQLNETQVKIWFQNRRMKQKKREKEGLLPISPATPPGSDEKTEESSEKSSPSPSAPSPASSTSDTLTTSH
Sequence of Hoxa1(WM-AA) (P09022 whole entry W203A/M204A): as the sequence (P09022 whole entry W203A/M204A, one chain of several) above
Sequence of Hoxa2(QN-AA) (Hoxa2*);Pbx1a (P31245 whole entry Q188A/N189A, one chain of several): as the sequence (P31245 whole entry, one chain of several) above, with Q188A, N189A counted along it
Sequence of Hoxa2(QN-AA) (Hoxa2*) (P31245 whole entry Q188A/N189A): as the sequence (P31245 whole entry, one chain of several) above, with Q188A, N189A counted along it
Sequence of Hoxa2 (P31245 whole entry): as the sequence (P31245 whole entry, one chain of several) above
Sequence of Hoxa1 (P09022 whole entry): as the sequence (P09022 whole entry W203A/M204A, one chain of several) above, with A203W, A204M counted along it

B1: comp* (unlabelled mutated HRE) (dsDNA)
DNA 1: TTTCAAAGTTGGTGGGGGAAGACCTCG
DNA 2: CGAGGTCTTCCCCCACCAACTTTGAAA
no binding: Hoxa2;Pbx1a [1] | Pbx1a;Prep1 [2]

B2: HRE (dsDNA)
DNA 1: TTTCAAAGTTCATCAATCAAGACCTCG
DNA 2: CGAGGTCTTGATTGATGAACTTTGAAA
no binding: [3] | Hoxa2(QN-AA) (Hoxa2*) | Hoxa1(WM-AA);Pbx1a | Hoxa1 | Hoxa1(WM-AA)

B3: HRE* (mutated HRE) (dsDNA)
DNA 1: TTTCAAAGTTGGTGGGGGAAGACCTCG
DNA 2: CGAGGTCTTCCCCCACCAACTTTGAAA
no binding: Hoxa2;Pbx1a [4] | Pbx1a;Prep1 [5] | Hoxa2
